Assay results taken from PMC4484057, “Daple is a novel non-receptor GEF required for trimeric G protein activation in Wnt signaling” (eLife, 2015).

B1: His-Daple-CT (aa 1650–2028) (domain or fragment, human, UniProt Q9P219-1 1650-2028, looked up)
chain: GTAPPYVGVRPCSASPSSEMVTLEEFLEESNRSSPTHDTPSCRDDLLSDYFRKASDPPAIGGQPGPPAKKEGAKMPTNFVAPTVKMAAPTSEGRPLKPGQYVKPNFRLTEAEAPPSVAPRQAQPPQSLSLGRPRQAPVPPASHAPASRSASLSRAFSLASADLLRASGPEACKQESPQKLGAPEALGGRETGSHTLQSPAPPSSHSLARERTPLVGKAGSSCQGPGPRSRPLDTRRFSLAPPKEERLAPLHQSATAPAIATAGAGAAAAGSGSNSQLLHFSPAAAPAARTKPKAPPRSGEVATITPVRAGLSLSEGDGVPGQGCSEGLPAKSPGRSPDLAPHLGRALEDCSRGSVSKSSPASPEPGGDPQTVWYEYGCV
notes: Cloned from myc-Daple pcDNA 3.1 into pET28b between NdeI/EcoRI; also called His-Daple-CT WT; Daple-CT-WT; source: E. coli BL21 (DE3), purified (HisPur Cobalt Resin)
B6: His-Gαi3 (natural protein, rat, UniProt P08753 1-354, looked up)
chain: MGCTLSAEDKAAVERSKMIDRNLREDGEKAAKEVKLLLLGAGESGKSTIVKQMKIIHEDGYSEDECKQYKVVVYSNTIQSIIAIIRAMGRLKIDFGEAARADDARQLFVLAGSAEEGVMTSELAGVIKRLWRDGGVQACFSRSREYQLNDSASYYLNDLDRISQTNYIPTQQDVLRTRVKTTGIVETHFTFKELYFKMFDVGGQRSERKKWIHCFEGVTAIIFCVALSDYDLVLAEDEEMNRMHESMKLFDSICNNKWFTDTSIILFLNKKDLFEEKIKRSPLTICYPEYTGSNTYEEAAAYIQCQFEDLNRRKDTKEVYTHFTCATDTKNVQFVFDAVTDVIIKNNLKECGLY
notes: also called His-Gαi3-GDP; recombinant His-Gαi3; source: E. coli BL21 (DE3), purified (HisPur Cobalt Resin)

Legend:
GST-Gαi3 = molecular target: T1, GST-Gαi3 (rat, UniProt P08753 1-354); assay: pull-down; Gβγ displacement: GST-Gαi3·Gβγ preformed on glutathione-agarose beads (∼0.4 µM GST-Gαi3), 0.05–1 µM His-Daple-CT, 5 hr at 4°C, GDP; bound Gβγ by immunoblot fitted to a single-site competition curve; settings: both partners purified
T1 construct: Gαi3, rat, in pGEX-4T-1; Loaded with GDP, GDP + AlF4- or GTPγS as the assay says; also called GST-Gαi3 WT; source: E. coli BL21 (DE3), purified (glutathione-Sepharose 4B)

His-Gαi3 [1] = molecular target: B6; assay: cell-based or functional assay
[2] = molecular target: B1; assay: pull-down; GST-Gα protein (5 µg) preloaded with GDP (inactive) on glutathione beads; purified His-Daple-CT (3 µg); 4 hr at 4°C; 50 mM Tris-HCl pH 7.4, 100 mM NaCl, 0.4% NP-40, 10 mM MgCl2, 5 mM EDTA, 30 µM GDP, 2 mM DTT; immunoblot; settings: both partners purified
His-Gαi3 [3] = molecular target: B6; assay: pull-down; GST-Daple-CT or GST-GIV-CT immobilised on glutathione-agarose beads; 0.01–3 µM purified His-Gαi3 (GDP-loaded); band intensities of immunoblots fitted to a single-site binding hyperbola; four independent experiments; settings: both partners purified
GST-Daple-CT = molecular target: T2, GST-Daple-CT (human, UniProt Q9P219-1 1650-2028); assay: as above; settings: both partners purified
T2 construct: Daple (CCDC88C), human, C-terminal region; pGEX-4T construct; also called GST-Daple-CT WT; source: E. coli BL21 (DE3), purified (glutathione-Sepharose 4B)
T2 sequence (looked up): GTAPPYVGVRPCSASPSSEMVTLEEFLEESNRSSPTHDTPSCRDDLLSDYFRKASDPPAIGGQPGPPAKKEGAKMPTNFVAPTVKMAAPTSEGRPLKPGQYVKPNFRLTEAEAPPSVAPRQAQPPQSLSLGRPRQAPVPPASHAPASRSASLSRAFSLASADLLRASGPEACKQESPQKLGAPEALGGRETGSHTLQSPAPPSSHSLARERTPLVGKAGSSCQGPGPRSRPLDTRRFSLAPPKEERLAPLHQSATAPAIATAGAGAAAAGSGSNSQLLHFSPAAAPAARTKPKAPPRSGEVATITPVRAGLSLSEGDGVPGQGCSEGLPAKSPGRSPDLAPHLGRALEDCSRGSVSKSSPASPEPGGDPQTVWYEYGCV

B1
IC50 (GST-Gαi3): 160 nM | steady-state GTPase activity of His-Gαi3 with 2 µM His-Daple-CT, over the basal activity (His-Gαi3 [1]): ~3 fold

B2: GST-Gαi3 K248M (natural protein, rat, UniProt P08753 1-354, looked up)
chain: MGCTLSAEDKAAVERSKMIDRNLREDGEKAAKEVKLLLLGAGESGKSTIVKQMKIIHEDGYSEDECKQYKVVVYSNTIQSIIAIIRAMGRLKIDFGEAARADDARQLFVLAGSAEEGVMTSELAGVIKRLWRDGGVQACFSRSREYQLNDSASYYLNDLDRISQTNYIPTQQDVLRTRVKTTGIVETHFTFKELYFKMFDVGGQRSERKKWIHCFEGVTAIIFCVALSDYDLVLAEDEEMNRMHESMMLFDSICNNKWFTDTSIILFLNKKDLFEEKIKRSPLTICYPEYTGSNTYEEAAAYIQCQFEDLNRRKDTKEVYTHFTCATDTKNVQFVFDAVTDVIIKNNLKECGLY
notes: Gαi3, rat, K248M; source: E. coli BL21 (DE3), purified (glutathione-Sepharose 4B)
binding result [2]: binds

B3: GST-Gαi3 W258F (natural protein, rat, UniProt P08753 1-354, looked up)
chain: MGCTLSAEDKAAVERSKMIDRNLREDGEKAAKEVKLLLLGAGESGKSTIVKQMKIIHEDGYSEDECKQYKVVVYSNTIQSIIAIIRAMGRLKIDFGEAARADDARQLFVLAGSAEEGVMTSELAGVIKRLWRDGGVQACFSRSREYQLNDSASYYLNDLDRISQTNYIPTQQDVLRTRVKTTGIVETHFTFKELYFKMFDVGGQRSERKKWIHCFEGVTAIIFCVALSDYDLVLAEDEEMNRMHESMKLFDSICNNKFFTDTSIILFLNKKDLFEEKIKRSPLTICYPEYTGSNTYEEAAAYIQCQFEDLNRRKDTKEVYTHFTCATDTKNVQFVFDAVTDVIIKNNLKECGLY
notes: Gαi3, rat, W258F; source: E. coli BL21 (DE3), purified (glutathione-Sepharose 4B)
binding result [2]: binds

B4: GST-Gαi2 (natural protein, rat, UniProt P04897 1-355, looked up)
chain: MGCTVSAEDKAAAERSKMIDKNLREDGEKAAREVKLLLLGAGESGKSTIVKQMKIIHEDGYSEEECRQYRAVVYSNTIQSIMAIVKAMGNLQIDFADPQRADDARQLFALSCAAEEQGMLPEDLSGVIRRLWADHGVQACFGRSREYQLNDSAAYYLNDLERIAQSDYIPTQQDVLRTRVKTTGIVETHFTFKDLHFKMFDVGGQRSERKKWIHCFEGVTAIIFCVALSAYDLVLAEDEEMNRMHESMKLFDSICNNKWFTDTSIILFLNKKDLFEEKITQSPLTICFPEYTGANKYDEAASYIQSKFEDLNKRKDTKEIYTHFTCATDTKNVQFVFDAVTDVIIKNNLKDCGLF
notes: Gαi2, rat, in pGEX-4T-1; also called GST-fused Gαi2; source: E. coli BL21 (DE3), purified (glutathione-Sepharose 4B)
binding result [2]: binds

B5: GST-GIV-CT (aa 1671–1755) (domain or fragment, UniProt Q3V6T2 1671-1755, looked up)
chain: IKTGSPGSEVVTLQQFLEESNKLTSVQIKSSSQENLLDEVMKSLSVSSDFLGKDKPVSCGLARSVSGKTPGDFYDRRTTKPEFLR
notes: GIV (CCDC88A, Girdin), aa 1671–1755, holds the GBA motif; also called GST-GIV CT 1671–1755 aa; source: E. coli BL21 (DE3), purified (glutathione-Sepharose 4B)
Kd (His-Gαi3 [3]): 240 nM

B6
Kd (GST-Daple-CT): 110 nM
